Source: the nanobody polyreactivity screen of Harvey et al. (2022)

Test: yeast display, Sf9 membrane polyspecificity reagent, FACS + sequencing; frameworks hold sequencing errors
Outline: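 Nanobodies from a synthetic yeast display library (Saccharomyces cerevisiae BJ5465), induced 36–48 hours with galactose, were stained 1 hour at 4 °C with 10% biotinylated, detergent-solubilized Sf9 membrane reagent, enriched on streptavidin microbeads, then FACS-sorted. Anti-HA (expression) and streptavidin (reagent binding) fluorescence set low and high (top ~1%) gates. Polyreactivity labels come from the gate of origin. Genes were colony-PCR amplified, MiSeq 2 × 250 sequenced and filtered by CDR length.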

Sequence	polyreactivity (PSR sort gate)
QVQLVESGGGLVQAGGSLRLSCAASGRIFWDNAMGWYRQAPGKERELVAAISDSVVITYYADSVKGRFTISRDNAKNTVYLQMNSLKPEDTAVYYCAADKRGTVYLSSFWMDYWGQGTQVTVSW	low polyreactivity
QVQLVESGGGLVQAGGSLRLSCAASGRIFWDNAMGWYRQAPGKERELVADITWRSDSTYYADSVKGRFTISRDNAKNTVYLQMNSLKPEATAVYYCAKPINIYPYDYWGQGTQVTVSS	low polyreactivity
QVQLVESGGGLVQAGGSLRLSCAASGRIFWDYALGWYRQAPGKERELVAVITFSGDSTYYADSVKGRFTISRDNAKNTVYVQMNSLKPEDTAVYYCAAARAIRQFWYVATFEYWGQGTQVTVSS	low polyreactivity
QVQLVESGGGLVQAGGSLRLSCAASGRIFWFNSMGWYRQAPGKERELVAAIDSVGSTYYADSVKGRFTISRDNAKNTVYLQMNSLKPEDTAVYYCAKSTRPVSGVPDGPLYEYWGQGTQVTVSS	low polyreactivity
QVQLVESGGGLVQAGGSLRLSCAASGRIFWGNGMGWYRQAPGKEREFVAAISKSGGSTYYADSVKGRFTISRDNAKNTVYLQMNSLKPEDTAVYYCAARAPYSYSGYGYWGQGTQVTVSS	high polyreactivity
QVQLVESGGGLVQAGGSLRLSCAASGRIFWGNGMGWYRQAPGKEREFVAAISKSGGSTYYADSVKGRFTISRDNAKNTVYLQMNSLKPEDTAVYYCNARTSRYRRGGDSWGQGTQVTVSS	high polyreactivity
QVQLVESGGGLVQAGGSLRLSCAASGRIFWGYAMGWYRQAPGKERELVARITSGGDTYYADSVKGRFTISRDNAKNTVYLQMNSLKPEDTAVYYCAISTAVKPYAYRESGFIYDYWGQGSQVTVSS	low polyreactivity
QVQLVESGGGLVQAGGSLRLSCAASGRIFWGYVMGWYRQAPGKERELVAAISSGGDTHYADSVKGRFTISRDNAKKTVYLQMNSLKPEDTAVYYCAARPNFTPYEYGYWGQGTQVTVSS	low polyreactivity
QVQLVESGGGLVQAGGSLRLSCAASGRIFWPNAMGWYRQAPGKERELVAAISYSGGSTYYADSVKGRFTISRDNAKNTVYLQMNSLKPEDTAVYYCAATRSVRISGDGYLGYDYWGQGTQVTVSS	high polyreactivity
QVQLVESGGGLVQAGGSLRLSCAASGRIFWQNAKGWYRQAPGKERELVAAISSRGGTTYYADSVKGRFTISRDNAKNTVYLQMNRLKPEDTAVYYCNAALLLRYRGFFTVAAYDYWGQGTQVTVSS	low polyreactivity
QVQLVESGGGLVQAGGSLRLSCAASGRIFWSYAMGWYRQAPGKERELVAAITWRTGRTYYADSVKGRFTISRDNAKNTVYLQMNSLKPEDTAVYYCAAEGYLWGQSYNGLNYDSWGQGTQVTVSS	low polyreactivity
QVQLVESGGGLVQAGGSLRLSCAASGRIFWTNAMGWYRQAPGKERELVAAISYRGGRTYYADSVKGRFTISRDNAKNTVYLQMNSLKPEDTAVYYCAAFTAQGPKYDYWGQGTQVTVSS	high polyreactivity
QVQLVESGGGLVQAGGSLRLSCAASGRIFWTNAMGWYRQEPGKERELVAAISYNGASTFYADSVKGRFTISLDNAKNTVNLQMNSLKPEDTAVYSCNAYSSRYRYNYWGQGTQVTVSS	high polyreactivity
QVQLVESGGGLVQAGGSLRLSCAASGRIFWTYAMGWYRQAPGKERELVASITWSGGTTYYADSVKGRFTISRDNAKNTVYLQMNSLKTEDTAVYYCNTDVLAPYDSGYWGQGTQVTVSS	low polyreactivity
QVQLVESGGGLVQAGGSLRLSCAASGRIFWVYAMGWYRQAPGKERELVAAISLSGGLTYYADSVKGRFTITRDNAKNTVYLQMNSLKPEDTAVYYCNAVYPKRGGGRIVDYWGEGTQVTVSS	high polyreactivity
QVQLVESGGGLVQAGGSLRLSCAASGRIFWYYAMGWSRQAPGKERELVATISYGGGNTYYADSVKGRFTISRDNAKNTVYLQMNSLKPEDTAVYYCARVPYAYLPYKPFQQYSYDYWGQGTQVTVSS	high polyreactivity
QVQLVESGGGLVQAGGSLRLSCAASGRIFWYYAMGWYRQAPGKERELVAAISRSGGSTYYADSVKGRFTISRDNAKNTVYLQMNSLKPEDTAVYYCAAGARAFDDDSWGQGTQVTVSS	low polyreactivity
QVQLVESGGGLVQAGGSLRLSCAASGRIFWYYAMGWYRQAPGKERELVAAITKSGGSTYYADSVKGRFTISRDYAKNTVYLQMNSLKPEDTAVYYCAAPTWTRSSFDYWGQGTQVTVSS	high polyreactivity
QVQLVESGGGLVQAGGSLRLSCAASGRIFWYYAMGWYRQAPGKERELVATISSGGRTNYADSVKGRCTISRDNAKNTVYLQMNSLKPEDTAVYYCAAKHPISTLYDYWGQGTQVTVSS	high polyreactivity
QVQLVESGGGLVQAGGSLRLSCAASGRIFWYYAMGWYRQAPGKERELVATISYGGGNTYYADSVKGRFTISRDNAKNTVYLQMNSLKPEDTAVYYCARVPYAYLPYKPFQQYSYDYWGQGTQVTVSS	high polyreactivity
QVQLVESGGGLVQAGGSLRLSCAASGRIFWYYAMVWYRQAPGKERELVATISSRSGSTYYADSVKGRFTISRDNAKNTVYLQMNSLKPEDTAVYYCAAGTPYYLGYRHNYWGQGTQVTVSS	high polyreactivity
QVQLVESGGGLVQAGGSLRLSCAASGRIFWYYTMGWYRQAPGKERELVASINSDTGTYYADSVKGRFTISRDNAKNTVYLQMNSLKPEDTAVYYCNKDDYALSNTWRPEYDYWGQGTQVTVSS	low polyreactivity

Sequence	polyreactivity (PSR sort gate)
QVQLVESGGGLVQAGGSLRLSCAASGRIFYANAMGWYRQAPGKERELVAAISSGGSTYYADSVKGRFTISRDNAKNTVYLQMNSLKPEDTAVYYCATDYQSTSVWGGHFVINPYDYWGQGTQVTVSS	low polyreactivity
QVQLVESGGGLVQAGGSLRLSCAASGRIFYAYAKGWYRPAPGKEREVVAAITRGGSTYYADSVKGRFTISRDNAKNTVYLQLNCLKREDTAVYSWAAQGYAPPLGESLGYWGEGTQVTVSS	low polyreactivity
QVQLVESGGGLVQAGGSLRLSCAASGRIFYAYAMGGYRQAPGKERELVASISGGGSTDYADSVKGRFTISRDNAMNTVYLQMNSLKPEDTAVYDCAAKRISYYSYNFDYWGEGTQVTVSS	high polyreactivity
QVQLVESGGGLVQAGGSLRLSCAASGRIFYAYAMGWYRQAPGKERELVAAISSSGRTYYADSVKGRFTISRDNAKNTVYLQMNSLKPEDTAVYYCAAPGSPYGYWGQGTQVTVSS	high polyreactivity
QVQLVESGGGLVQAGGSLRLSCAASGRIFYAYAMGWYRQAPGKERELVAAITARGGSTYYADSVKGRFTISRDNAKTTVYLQMNSLKPEDTAVYYCAKDTLLETGYEYWGQGTQVTVSS	high polyreactivity
QVQLVESGGGLVQAGGSLRLSCAASGRIFYAYTMGRSRQAPGKERELVAAISGSGSTYYADSVKGRFTISRDNAKNTVYLQMNSLKPEDTAVYYCAADVTGGRKYDYWGQGTQVTVSS	low polyreactivity
QVQLVESGGGLVQAGGSLRLSCAASGRIFYDNTMGWYRQAPGKERELFAAITWRVGNTNYADSVKGRFTISRDNAKNTVYLQMNSLNPEDTAVYYCAVRLLADDGYPAVVGYDYWGQGTQVTVSS	low polyreactivity
QVQLVESGGGLVQAGGSLRLSCAASGRIFYFNAMGWYRQAPGKERELVADISTGGRTNYADSVKGRFTISRDNAKNTVYLQMNSLNPEDTAVYYCNAEPYTSSGGYRGYDFDYWGQGTQVTVSS	low polyreactivity
QVQLVESGGGLVQAGGSLRLSCAASGRIFYFNTMGWYRQAHGKEIELVAAITRNGGSTYYADSVKWRFTISRDNAKNTVYFQMNSLKPEDTAVYYCNARYRAAKRGKAWYRYDYWGQGTQVTVSS	high polyreactivity
QVQLVESGGGLVQAGGSLRLSCAASGRIFYFNTMGWYRQAPGKERELVAAITGSGSSTYYADSVKGRFTISRDNAKNTVYLQMNSLKPEDTAVYYCAAYGFSRNGYTYGHDDWGQGTQVTVSS	low polyreactivity
QVQLVESGGGLVQAGGSLRLSCAASGRIFYFYAMGWYRQAPGKERELVAAITSGGGTYYADSVKGRFTISRDNAKNTVYLQMNSLKPEDTAVYYCDVRVYRTSWQGYYYWGQGTQVTVSS	high polyreactivity
QVQLVESGGGLVQAGGSLRLSCAASGRIFYGNAMGWYRQAPGKERELVAAISKRGGSTHYADSVKGRFTISRDNAKNPVYLQMNSLKPEDTAVDYCATDSYYVGAVHYYYWGQGTQVTVSS	high polyreactivity
QVQLVESGGGLVQAGGSLRLSCAASGRIFYGNAMGWYRQAPGKERELVATISSSGGRTTYADSVKGRFTISRDNAKNTVYLQMNSLKPEDTAVYYCADQGYWTGYDYWGQGTQVTVSS	high polyreactivity
QVQLVESGGGLVQAGGSLRLSCAASGRIFYGNAMGWYRQPPGKERELFAGITRSSGTSTYYADSVKVRFTISRDNAKYTVYLQMNSMNPEDTAVYYCAAPPDSYYYYKVPVVPYDYWGQGTQVTVSS	low polyreactivity
QVQLVESGGGLVQAGGSLRLSCAASGRIFYGNAMGWYRQSPGKERELVASITSSGSTKYADSVKGRFTISRDNAKNTVYLQMNSLKPEDTAVYYCAASSTKRYDTYAGYDYWGQGTQVTVSS	low polyreactivity
QVQLVESGGGLVQAGGSLRLSCAASGRIFYGNTLGWYRQAPGKERELVAAISSGGSTNYADSVKGRFTISRDNAKNTVYLQMNSLKPEDTAVYYCAAAGRPGGYVQRDSWGQGTQVTVSS	high polyreactivity
QVQLVESGGGLVQAGGSLRLSCAASGRIFYGNTMGWYRPAPGKERELVAAITGSGTSTYYADSVKGRFTISRDNAKNTVYLQMNSLKPEDTAVYYCNADRPVYVDYINGGYGYWGQGTQVTVSS	low polyreactivity
QVQLVESGGGLVQAGGSLRLSCAASGRIFYGNTMGWYRQAPGKERELVAAITWRGGSTYYADSVKGRFTISRDNAKITVYLQMNSLKPEDTAVYYCAAVSYRGRGYWGQGTQVTVSS	high polyreactivity
QVQLVESGGGLVQAGGSLRLSCAASGRIFYGYAMGWYRKAPVKEREFVAAITVSAGSTYYADSVKGRFTISRDNAKNTVYLLMNSLKPEDTAVYYCASKRYVYPSYRFDYWGQGTQVSVSS	low polyreactivity
QVQLVESGGGLVQAGGSLRLSCAASGRIFYGYAMGWYRQAPGKERELVAAISWRGDSTYYADSVKGRFTISRDNAKNTVYLQMNSLKPEDTAVYYCAARRPGYYYPSKFDYWGQGTQVTVSS	high polyreactivity
QVQLVESGGGLVQAGGSLRLSCAASGRIFYGYAMGWYRQAPGKERELVAAITWIDGSTYYADSVKGRFTISRDNAKNTVYLQMNSLKPEDTAVYFCNKTWYGDSGTRTYWGQVTQVTVSS	low polyreactivity
